Measurements published in paper PMC12084609, “Structural insights into small-molecule agonist recognition and activation of complement receptor C3aR” (The EMBO Journal, 2025).
Positions count from the first letter of the chain named. “And” between values parts separate entries of the source, which are not always exact repeats. Equal values may be shown once.

Tests used:
[1] = biological target: T1, C3aR V103^3.33A (Homo sapiens, UniProt Q16581, V103A); assay: GloSensor-based cAMP assay, C3aR mutant V103A; type: cell-based; conditions: V1033.33A, single replicates
T1 construct: expressed in transfected cells; host or cells: HEK293T
T1 sequence (Q16581 1-482 V103A): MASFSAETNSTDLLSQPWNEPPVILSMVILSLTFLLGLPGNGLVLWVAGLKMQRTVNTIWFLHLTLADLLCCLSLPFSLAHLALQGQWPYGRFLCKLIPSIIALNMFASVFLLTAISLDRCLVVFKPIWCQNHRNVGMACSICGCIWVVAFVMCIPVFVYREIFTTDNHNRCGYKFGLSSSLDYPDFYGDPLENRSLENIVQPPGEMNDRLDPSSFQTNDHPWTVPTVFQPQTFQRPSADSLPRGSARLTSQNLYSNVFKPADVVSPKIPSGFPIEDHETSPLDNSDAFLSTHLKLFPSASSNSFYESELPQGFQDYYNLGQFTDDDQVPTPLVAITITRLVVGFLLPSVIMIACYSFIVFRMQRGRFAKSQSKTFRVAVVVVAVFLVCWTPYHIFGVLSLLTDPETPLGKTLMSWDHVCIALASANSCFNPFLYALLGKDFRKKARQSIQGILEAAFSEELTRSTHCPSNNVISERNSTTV
Procedure: (§1) HEK293T cells were seeded on 6-well plates (NEST) and transfected with pGlosensor™-22F plasmids (Promega) and pcDNA3.1 plasmids encoding C3aR or its mutants an with N-terminal FLAG tag. After 48 h, cells were detached with Accutase solution (Sigma-Aldrich) and washed with PBS, and resuspended in assay buffer (CO2-independent medium with 0.5 mg mL^−1D-luciferin). 100,000–200,000 cells were seeded on 96-well white bottom plates (SPL) and incubated at 37 °C for 45 min followed by 45 min incubation at room temperature. After 90 min of incubation, basal luminescence signals were recorded. In total, 25 μl of test ligand with various concentrations and 1 μM Forskolin (Sigma-Aldrich) were treated to the cells and luminescence signals were measured by Tristar 2 LB 942 multimode reader (Berthold). […] Relative luminescence unit (%) was calculated with the signal of wells treated with vehicle as 0% and the signal of wells treated with 1 μM Forskolin as 100% (DiRaddo et al, [2014]). Nonlinear regression was performed using a three-parameter logistic equation.

[2] = biological target: T2, C3aR WT (Homo sapiens, UniProt Q16581); assay: GloSensor-based cAMP assay, WT C3aR (HEK293T); type: cell-based
T2 construct: expressed in transfected cells; host or cells: HEK293T
T2 sequence (Q16581 1-482): T1 sequence (Q16581 1-482 V103A) with A103V
Procedure: as §1

For “C3a: anaphylatoxin C3a, natural peptide ligand of C3aR (a 77-amino acid peptide), Sigma-Aldrich”, the “cAMP response (% Forskolin)” value ([1]; Log[C3a (M)] -7) was 19.41 % Forskolin and 19.52 % Forskolin and 19.42 % Forskolin and 22.72 % Forskolin, the “cAMP response (% Forskolin)” value ([1]; Log[C3a (M)] -8) was 24.04 % Forskolin and 22.92 % Forskolin and 25.51 % Forskolin and 44.96 % Forskolin and the “cAMP response (% Forskolin)” value ([1]; Log[C3a (M)] -9) was 89.16 % Forskolin and 71.89 % Forskolin and 87.77 % Forskolin and 103.75 % Forskolin. For the same substance, the “cAMP response (% Forskolin)” value ([1]; Log[C3a (M)] -10) was 100.58 % Forskolin and 94.90 % Forskolin and 95.96 % Forskolin and 103.23 % Forskolin, the “cAMP response (% Forskolin)” value ([1]; Log[C3a (M)] -11) was 100.23 % Forskolin and 96.38 % Forskolin and 92.81 % Forskolin and 102.90 % Forskolin and the “cAMP response (% Forskolin)” value ([1]; Log[C3a (M)] -12) was 97.59 % Forskolin and 96.90 % Forskolin and 93.29 % Forskolin and 103.97 % Forskolin. For the same substance, the “cAMP response (% Forskolin)” value ([2]; Log[ligand (M)] -7, individual replicates) was 13.23 % Forskolin and 9.10 % Forskolin and 12.07 % Forskolin and 14.17 % Forskolin and 11.07 % Forskolin and 5.64 % Forskolin and 5.88 % Forskolin and 10.80 % Forskolin and 18.77 % Forskolin and 9.30 % Forskolin and 7.84 % Forskolin and 11.11 % Forskolin and 5.15 % Forskolin and 8.46 % Forskolin and 12.88 % Forskolin and 7.97 % Forskolin and 4.89 % Forskolin and 13.21 % Forskolin and 8.34 % Forskolin and 9.36 % Forskolin and 10.44 % Forskolin, the “cAMP response (% Forskolin)” value ([2]; Log[ligand (M)] -8, individual replicates) was 14.46 % Forskolin and 11.08 % Forskolin and 11.75 % Forskolin and 14.58 % Forskolin and 33.21 % Forskolin and 8.44 % Forskolin and 9.26 % Forskolin and 14.67 % Forskolin and 23.44 % Forskolin and 12.45 % Forskolin and 9.97 % Forskolin and 12.70 % Forskolin and 7.51 % Forskolin and 11.02 % Forskolin and 17.00 % Forskolin and 9.96 % Forskolin and 6.25 % Forskolin and 18.05 % Forskolin and 9.98 % Forskolin and 10.68 % Forskolin and 14.94 % Forskolin and the “cAMP response (% Forskolin)” value ([2]; Log[ligand (M)] -9, individual replicates) was 89.10 % Forskolin and 91.75 % Forskolin and 55.83 % Forskolin and 67.46 % Forskolin and 97.65 % Forskolin and 80.78 % Forskolin and 91.72 % Forskolin and 89.77 % Forskolin and 62.11 % Forskolin and 58.26 % Forskolin and 94.14 % Forskolin and 92.02 % Forskolin and 88.40 % Forskolin and 88.60 % Forskolin and 88.28 % Forskolin and 92.79 % Forskolin and 82.03 % Forskolin and 98.67 % Forskolin and 72.46 % Forskolin and 83.05 % Forskolin and 92.23 % Forskolin. The “cAMP response (% Forskolin)” value ([2]; Log[ligand (M)] -10, individual replicates) was 100.49 % Forskolin and 92.00 % Forskolin and 96.47 % Forskolin and 95.65 % Forskolin and 99.73 % Forskolin and 94.19 % Forskolin and 91.55 % Forskolin and 96.59 % Forskolin and 91.09 % Forskolin and 100.53 % Forskolin and 103.10 % Forskolin and 100.18 % Forskolin and 107.39 % Forskolin and 101.42 % Forskolin and 99.05 % Forskolin and 90.86 % Forskolin and 91.78 % Forskolin and 95.04 % Forskolin and 92.70 % Forskolin and 92.81 % Forskolin and 96.03 % Forskolin, the “cAMP response (% Forskolin)” value ([2]; Log[ligand (M)] -11, individual replicates) was 101.69 % Forskolin and 104.79 % Forskolin and 99.76 % Forskolin and 97.79 % Forskolin and 100.01 % Forskolin and 95.95 % Forskolin and 100.56 % Forskolin and 98.17 % Forskolin and 98.43 % Forskolin and 104.54 % Forskolin and 103.48 % Forskolin and 99.03 % Forskolin and 107.10 % Forskolin and 101.90 % Forskolin and 98.42 % Forskolin and 97.15 % Forskolin and 94.72 % Forskolin and 92.05 % Forskolin and 96.59 % Forskolin and 94.55 % Forskolin and 98.62 % Forskolin and the “cAMP response (% Forskolin)” value ([2]; Log[ligand (M)] -12, individual replicates) was 96.64 % Forskolin and 93.74 % Forskolin and 99.06 % Forskolin and 103.59 % Forskolin and 106.40 % Forskolin and 103.79 % Forskolin and 101.64 % Forskolin and 99.02 % Forskolin and 93.95 % Forskolin and 101.82 % Forskolin and 99.95 % Forskolin and 96.51 % Forskolin and 98.16 % Forskolin and 96.67 % Forskolin and 94.02 % Forskolin and 101.30 % Forskolin and 98.69 % Forskolin and 95.26 % Forskolin and 98.94 % Forskolin and 96.13 % Forskolin and 98.01 % Forskolin. For the same substance, the “pIC50 ± SEM (Mean)” value ([2]; WT C3aR, 1 μM Forskolin, mean of independent experiments) was 8.56, the “pIC50 Value” ([2]; WT C3aR, Figure EV1B numerical data, curve fit) was 8.52 and the IC50 ([2]; WT C3aR, decrease in cAMP levels, read-out: IC50) was 2.87 nM. The “pIC50 (Replicate)” value ([2]; WT C3aR, individual replicates) was 8.46 and 8.98 and 8.82 and 8.27 and 8.58 and 8.47 (4×) and 8.89 and 8.95 and 8.48 and 8.53 (2×) and 8.50 and 8.45 and 8.54 and 8.67 and 8.44, the “cAMP response (% Forskolin)” value ([2]; WT, Log[C3a (M)] -7, single replicates) was 13.23 % Forskolin and 9.10 % Forskolin and 12.07 % Forskolin and 14.17 % Forskolin and 11.07 % Forskolin and 5.64 % Forskolin and 5.88 % Forskolin and 10.80 % Forskolin and 18.77 % Forskolin and 9.30 % Forskolin and 7.84 % Forskolin and 11.11 % Forskolin and 5.15 % Forskolin and 8.46 % Forskolin and 12.88 % Forskolin and 7.97 % Forskolin and 4.89 % Forskolin and 13.21 % Forskolin and 8.34 % Forskolin and 9.36 % Forskolin and 10.44 % Forskolin and the “cAMP response (% Forskolin)” value ([2]; WT, Log[C3a (M)] -8, single replicates) was 14.46 % Forskolin and 11.08 % Forskolin and 11.75 % Forskolin and 14.58 % Forskolin and 33.21 % Forskolin and 8.44 % Forskolin and 9.26 % Forskolin and 14.67 % Forskolin and 23.44 % Forskolin and 12.45 % Forskolin and 9.97 % Forskolin and 12.70 % Forskolin and 7.51 % Forskolin and 11.02 % Forskolin and 17.00 % Forskolin and 9.96 % Forskolin and 6.25 % Forskolin and 18.05 % Forskolin and 9.98 % Forskolin and 10.68 % Forskolin and 14.94 % Forskolin. For the same substance, the “cAMP response (% Forskolin)” value ([2]; WT, Log[C3a (M)] -9, single replicates) was 89.10 % Forskolin and 91.75 % Forskolin and 55.83 % Forskolin and 67.46 % Forskolin and 97.65 % Forskolin and 80.78 % Forskolin and 91.72 % Forskolin and 89.77 % Forskolin and 62.11 % Forskolin and 58.26 % Forskolin and 94.14 % Forskolin and 92.02 % Forskolin and 88.40 % Forskolin and 88.60 % Forskolin and 88.28 % Forskolin and 92.79 % Forskolin and 82.03 % Forskolin and 98.67 % Forskolin and 72.46 % Forskolin and 83.05 % Forskolin and 92.23 % Forskolin, the “cAMP response (% Forskolin)” value ([2]; WT, Log[C3a (M)] -10, single replicates) was 100.49 % Forskolin and 92.00 % Forskolin and 96.47 % Forskolin and 95.65 % Forskolin and 99.73 % Forskolin and 94.19 % Forskolin and 91.55 % Forskolin and 96.59 % Forskolin and 91.09 % Forskolin and 100.53 % Forskolin and 103.10 % Forskolin and 100.18 % Forskolin and 107.39 % Forskolin and 101.42 % Forskolin and 99.05 % Forskolin and 90.86 % Forskolin and 91.78 % Forskolin and 95.04 % Forskolin and 92.70 % Forskolin and 92.81 % Forskolin and 96.03 % Forskolin and the “cAMP response (% Forskolin)” value ([2]; WT, Log[C3a (M)] -11, single replicates) was 101.69 % Forskolin and 104.79 % Forskolin and 99.76 % Forskolin and 97.79 % Forskolin and 100.01 % Forskolin and 95.95 % Forskolin and 100.56 % Forskolin and 98.17 % Forskolin and 98.43 % Forskolin and 104.54 % Forskolin and 103.48 % Forskolin and 99.03 % Forskolin and 107.10 % Forskolin and 101.90 % Forskolin and 98.42 % Forskolin and 97.15 % Forskolin and 94.72 % Forskolin and 92.05 % Forskolin and 96.59 % Forskolin and 94.55 % Forskolin and 98.62 % Forskolin. For the same substance, the “cAMP response (% Forskolin)” value ([2]; WT, Log[C3a (M)] -12, single replicates) was 96.64 % Forskolin and 93.74 % Forskolin and 99.06 % Forskolin and 103.59 % Forskolin and 106.40 % Forskolin and 103.79 % Forskolin and 101.64 % Forskolin and 99.02 % Forskolin and 93.95 % Forskolin and 101.82 % Forskolin and 99.95 % Forskolin and 96.51 % Forskolin and 98.16 % Forskolin and 96.67 % Forskolin and 94.02 % Forskolin and 101.30 % Forskolin and 98.69 % Forskolin and 95.26 % Forskolin and 98.94 % Forskolin and 96.13 % Forskolin and 98.01 % Forskolin.
